Data from the supplement of paper PMC12764529.
± gives the half width of the 95% confidence interval.

What was measured:
[1] = folding stability dG unfold from trypsin proteolysis; higher = more stable
Method in brief: (§1)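 Designed mini-proteins (under 80 residues, no cysteine) in a PA-tagged cDNA display construct were digested with trypsin and chymotrypsin. Each protease was used at 11 concentrations (threefold dilutions) plus a no-protease condition, followed by sequencing. K50 was inferred by Bayesian fitting of sequencing counts, and unfolding free energy was derived against a sequence-predicted unfolded-state K50 and a shared folded-state K50, per protease or combined. Only designs with AlphaFold2 dimer inter-PAE above 15 were kept.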

[2] = folding stability dG unfold from chymotrypsin proteolysis; higher = more stable
Method in brief: as §1

[3] = folding stability dG unfold (combined trypsin and chymotrypsin); higher = more stable
Method in brief: as §1

| Sequence | folding stability dG unfold [1] | folding stability dG unfold [2] | folding stability dG unfold [3] |
| --- | --- | --- | --- |
| SAGKVIVIDAEEMTEEELKEILKKTKPGEKILIIAKSKEVAEKLKELGFEVEEVEKVPLTEEELKKLKKSAG [r5_354_TrROS_Hall] | 0.835 ± 0.063 kcal/mol | 1.27 ± 0.028 kcal/mol | 1.08 ± 0.14 kcal/mol |
| SAGKWKVRTIPLPGFSITIWYDPDEGRIRISITMWMWKPKKDPENGKPKQEHRMMTMEAPIPIPPGAPISAG [r5_195_TrROS] | 1.86 ± 0.074 kcal/mol | 2.51 ± 0.29 kcal/mol | 2.3 ± 0.27 kcal/mol |
| SAGKWVTIEIPIYIPGNPSQLKDLVEEIANILAAHGMKINVDVEVYPVDDYYIVKITVTVRMPPGMPIISAG [r5_217_TrROS] | 3.75 ± 0.17 kcal/mol | 3.23 ± 0.1 kcal/mol | 3.41 ± 0.19 kcal/mol |
| SAGKYKIKNVQFSNNSITIEIYDDGKPKAEIPIPPNFPNMKVDAEIDEDGSIKIKFRFNGQPQEIEIPPSAG [r5_533_TrROS] | 0.819 ± 0.057 kcal/mol | 1.54 ± 0.17 kcal/mol | 1.25 ± 0.31 kcal/mol |
| SAGLDIKKIEFDPNGYLRIEVVYDKNISIKEIIEEIKKLTGATVEKVEVKPTKNGVKAIFILKIDKNLKSAG [r5_774_TrMRF] | 1.12 ± 0.042 kcal/mol | 3.052 ± 0.021 kcal/mol | 2.6 ± 0.11 kcal/mol |
| SAGLEDAQKEKRFVIKIEIRHPNGEKVKMTIAFKPGDPEDIRDELRKMGMPPDDLNERNPNLKIDEIEPSAG [r5_430_TrROS] | 0.646 ± 0.084 kcal/mol | 1.59 ± 0.079 kcal/mol | 1.29 ± 0.11 kcal/mol |
| SAGLKVESQTYDPATGTATVTPPLEGVPPDYTITVTDTATGKKTTLPPDGDVTLSNPTGPVTVTLTRPASAG [r14_134_JUSTAS] | 0.152 ± 0.038 kcal/mol | 0.354 ± 0.093 kcal/mol | 0.277 ± 0.074 kcal/mol |
| SAGLKVRIRTKDGREIEIEVSEEEAERLVKELEDAGFTVERVEVEELEPEEEKEELEEEERELKEELEESAG [r5_645_TrROS_Hall] | 3.28 ± 0.27 kcal/mol | 2.91 ± 0.069 kcal/mol | 2.72 ± 0.32 kcal/mol |
| SAGLRIEPTPDYIKITMPGPNMANEIIKKIQEHFGDIEIDDIKPEPYPNGNNRVTIWIPLKNLPPELLKSAG [r5_857_TrROS] | 0.895 ± 0.028 kcal/mol | 1.18 ± 0.085 kcal/mol | 1.06 ± 0.07 kcal/mol |
| SAGMAEEAREAARLFASELAPRFGVEAEIPEVRVEFDPETGEVHVHLEVLFRLPEPRTVRRDFVLVLPLSAG [r5_381_TrMRF] | 1.3 ± 0.086 kcal/mol | 1.92 ± 0.13 kcal/mol | 1.67 ± 0.1 kcal/mol |
| SAGMAKVKLKVEVYFPKTGKPVTMEIEVEGLTLEEIIEEVKKAIEAIGLKIDPDAPVKIVITDIEVYPGSAG [r5_230_TrMRF] | 3.75 ± 0.11 kcal/mol | 3.77 ± 0.039 kcal/mol | 3.77 ± 0.077 kcal/mol |
| SAGMARIIPNPPVIEVVRKDGSKLVIPPEEIEELRAALEAKGGPYTPEEIAEAIRKLFPDYEVSIVPASAGG [r19_46_TrMRF] | -0.284 ± 0.38 kcal/mol | -0.0899 ± 0.17 kcal/mol | -0.109 ± 0.22 kcal/mol |
| SAGMDFPESYTPIASNGKTLVFKSPTEVYIVLYSPEGGSEVRSFTPGDESVLNPFLEELKKSDYVNLNISAG [r14_12_JUSTAS] | 0.695 ± 0.028 kcal/mol | 1.1 ± 0.087 kcal/mol | 0.995 ± 0.093 kcal/mol |
| SAGMDKPLKVLEIGGAILPNTGKVVLKAKVEDPDSNTPLDLTLTLPVVDPVTGKPYIFTASYTYESPLSAGG [r19_129_TrMRF] | 0.338 ± 0.13 kcal/mol | 0.844 ± 0.17 kcal/mol | 0.681 ± 0.12 kcal/mol |
| SAGMEAIRKKAEELAKKGKIFKITLTGPDGIPETKILSPEEFKKFLEEFPDPEAIASVEVEAYEPGKPISAG [r5_957_JUSTAS] | 2.35 ± 0.1 kcal/mol | 3.78 ± 0.046 kcal/mol | 3.24 ± 0.1 kcal/mol |
| SAGMEIEITGPNLEELAEKVAKELKEKNWSPPVTITLKEPGGKTVLKVTVEFNPPNPNEIKVTKEKVESAGG [r19_85_JUSTAS] | 0.571 ± 0.14 kcal/mol | 0.902 ± 0.062 kcal/mol | 0.683 ± 0.18 kcal/mol |
| SAGMEKAINLAKEYAKKLGLPLESINVTEIGNSVIIEMKIPEKGETITVNIPIHPDGTISLNIKFEKKKSAG [r5_888_JUSTAS] | 1.2 ± 0.037 kcal/mol | 2.623 ± 0.019 kcal/mol | 2.09 ± 0.087 kcal/mol |
| SAGMEKKTLTVTHPDGSEATVEVYKNPETGKYVTLVHYPETGKYEVFDDNGNLIATFGNGSAADAFKAISAG [r5_757_TrMRF] | 0.375 ± 0.054 kcal/mol | 1.8 ± 0.1 kcal/mol | 1.44 ± 0.13 kcal/mol |
| SAGMETIEVPLPVEEIKEALDAGLSPEEIARLLAEETGEEVEIEVGGRKITITRNEDGELIVRIEVKPDSAG [r5_343_TrROS_Hall] | 2.51 ± 0.085 kcal/mol | 2.22 ± 0.091 kcal/mol | 2.36 ± 0.2 kcal/mol |
| SAGMETVTVEVDGATITFVKNEDGTVTAIVTYPNGEVEIYNADGELIRRERLPNGLVVFEFTKEELEKLSAG [r5_457_TrROS_Hall] | 1.19 ± 0.057 kcal/mol | 2.09 ± 0.068 kcal/mol | 1.93 ± 0.14 kcal/mol |
| SAGMETVVTYDPSNGTVTTTTTVFAPDGTPLGSLSTTTPIGGGTITYTTITIDPETGTVTTTTTAYPGASAG [r5_34_JUSTAS] | 2.77 ± 0.093 kcal/mol | 4.49 ± 0.086 kcal/mol | 4.25 ± 0.11 kcal/mol |

| Sequence | folding stability dG unfold [1] | folding stability dG unfold [2] | folding stability dG unfold [3] |
| --- | --- | --- | --- |
| SAGMEVEILGAEVDPETGVVKVVAVGRDPVTGVLVVDEITIKGDTVEIRREVYFPNTGKKAETTATIPLSAG [r5_150_TrMRF] | 1.66 ± 0.13 kcal/mol | 1.43 ± 0.071 kcal/mol | 1.55 ± 0.12 kcal/mol |
| SAGMGIVEALRRELEAAGLDVRVSATVEPLPDLGYVLITVHVEVRNENGEWVPLGPLTILLPVEEAERLSAG [r5_413_TrMRF] | 2.9 ± 0.12 kcal/mol | 2.43 ± 0.07 kcal/mol | 2.55 ± 0.13 kcal/mol |
| SAGMIATITITRPGTGSITLTVPVPVPSEEEARAYAEAVREALRAADPGPLEVSVEFERVPPVPPERLGSAG [r5_87_JUSTAS] | 1.6 ± 0.038 kcal/mol | 1.85 ± 0.036 kcal/mol | 1.75 ± 0.1 kcal/mol |
| SAGMIEINNVTPNYVMIKIWNPDNGKKWEIPIQYERDNGKPYSKDKALEEIKDIAKEFYPDFDIEVEPVSAG [r5_293_TrROS] | 0.0269 ± 0.15 kcal/mol | 0.727 ± 0.14 kcal/mol | 0.41 ± 0.25 kcal/mol |
| SAGMIKIEETDGKLKVTITLKADDPEEITVEMIKEELEKLGLEVAEIKITPEPNEDGQYTVTAEIVVDVSAG [r5_922_TrMRF] | 2.99 ± 0.39 kcal/mol | 3.06 ± 0.16 kcal/mol | 3.08 ± 0.23 kcal/mol |
| SAGMIKVEVVEKDEKTKEWKVVETKTIPVKPGEKPTVEELAKKLKEKGYEVRIEKTKDGTLKIYVIKKKSAG [r5_269_TrROS_Hall] | 3.33 ± 0.2 kcal/mol | 4.08 ± 0.061 kcal/mol | 3.78 ± 0.16 kcal/mol |
| SAGMISPEEIAKRLKAGEPVEIYLPDPAEKEALLAELQKLLGLSEEELKEIFAKMKFTEIPATDPRLLASAG [r5_368_JUSTAS] | 1.16 ± 0.045 kcal/mol | 2.03 ± 0.058 kcal/mol | 1.67 ± 0.046 kcal/mol |
| SAGMISSVSSEPSTNTTTATIPETGKTITYNPETGTLTVTPPTGNPSVIPVETPEEAERAMEEVIAELSSAG [r5_467_JUSTAS] | 1.11 ± 0.041 kcal/mol | 0.228 ± 0.038 kcal/mol | 0.816 ± 0.079 kcal/mol |
| SAGMITISEEEARELGVPIGASEEEIKEALAARLREEGYKVEFPSVVKEKVDPKTGKVEYKIDINLKPLSAG [r5_23_JUSTAS] | 1.3 ± 0.051 kcal/mol | -0.104 ± 0.48 kcal/mol | 0.807 ± 0.18 kcal/mol |
| SAGMKEIKIKDAKIEVKKKKDGKKVKRITLKDGKEIEIKEDGSIIIRNKKTGKYIKLPKNMTIEELLKKSAG [r5_348_TrROS_Hall] | 0.925 ± 0.09 kcal/mol | 1.74 ± 0.029 kcal/mol | 1.48 ± 0.098 kcal/mol |
| SAGMKEVTVSKDELEEILKKLPPNKTYKVTLYNPNGPTYEFTVTVENDTIKINEGPPNKSENLKVTLVSSAG [r5_85_JUSTAS] | 1.53 ± 0.036 kcal/mol | 2.32 ± 0.024 kcal/mol | 2 ± 0.051 kcal/mol |
| SAGMKIKIVKIEKEEDGTIRVELEITDPNGNKYRVEAEIDLKDPNKIKIKVINEDTGEEFEIELTIKKPSAG [r5_345_TrROS_Hall] | 3.6 ± 0.23 kcal/mol | 5.19 ± 0.2 kcal/mol | 5.24 ± 0.35 kcal/mol |
| SAGMKITISYDEAKGIATVTLYEERPVETPNGPVTLRRKVATVTIPYTSLEEAKKQAEEAAKALLEKLSSAG [r5_956_JUSTAS] | 5.11 ± 0.14 kcal/mol | 5.036 ± 0.033 kcal/mol | 5.06 ± 0.084 kcal/mol |
| SAGMKITYKRPDGTPAEPIPEEEIKKLAEEKAKELYPNKPDATVTVTITIKTNNNEPLIITMTVTIKNESAG [r5_526_JUSTAS] | 0.982 ± 0.054 kcal/mol | 1.13 ± 0.18 kcal/mol | 1 ± 0.38 kcal/mol |
| SAGMKKVIELTIPVTGPEEVEELVAKLEEEEPAVPVERRPDPRLGAVRVVVEKKFPDSIVYITLTAAASAGG [r19_262_JUSTAS] | 0.784 ± 0.042 kcal/mol | 0.496 ± 0.071 kcal/mol | 0.677 ± 0.065 kcal/mol |
| SAGMKLELLLPAEEAVRLFGPDFDARDLARALASEGYVVESVEAEPFPNPEEGGLYLRVTFDVRPPDASAGG [r19_376_TrMRF] | 1.37 ± 0.018 kcal/mol | 1.4 ± 0.061 kcal/mol | 1.38 ± 0.045 kcal/mol |
| SAGMKPGEKVKVTLTLTETRVEEVDGEKKVEKRTLTIEVTVEVSEEDREKALEEAEELARKLAEEGLIPSAG [r5_532_TrROS_Hall] | 1.21 ± 0.15 kcal/mol | 1.24 ± 0.07 kcal/mol | 1.31 ± 0.28 kcal/mol |
| SAGMKPNETLPNAIIRIENSKGKVKEFTLPNVVSIEEIDEKNGIITLTLPNNKKITLKVPKNAKITIEGSAG [r5_762_TrMRF] | 3.04 ± 0.11 kcal/mol | 3.5 ± 0.049 kcal/mol | 3.37 ± 0.049 kcal/mol |
| SAGMKTKTIEETITFTFPPGNPPDLEEIKEKLKSKGVKVLKVEMFEPPGDYYVVTAKVVKELEPSELLSSAG [r5_167_JUSTAS] | 0.934 ± 0.072 kcal/mol | 2.27 ± 0.039 kcal/mol | 1.84 ± 0.13 kcal/mol |
| SAGMKVILIIAPEEKIEEIFEEIKKIAEEHGLDLKLDKIEPLPEKGYLVIVTVKNPESDETTVILVLVPSAG [r5_41_TrMRF] | 2.96 ± 0.096 kcal/mol | 3.75 ± 0.077 kcal/mol | 3.55 ± 0.12 kcal/mol |
| SAGMKVTTFTTPTRTVTVTLTPDGTVTVTVTDPSGNPTVTAPDGTPVASTTAPDGTTTFTLDPALFAAASAG [r5_457_JUSTAS] | 0.717 ± 0.047 kcal/mol | 0.965 ± 0.1 kcal/mol | 0.896 ± 0.073 kcal/mol |
